Molecular target: full length (FL) human recombinant TPPP/p25 (Tubulin Polymerization Promoting Protein) (human) (UniProt O94811)
Test: SDS-PAGE without reducing agent; 5 ug protein from the 200 uM stock solution loaded directly onto the gel in the absence of DTE; disulphide-stabilized dimers

Question: With “full length (FL) human recombinant TPPP/p25 (Tubulin Polymerization Promoting Protein) (from UniProt O94811 1-219) (natural protein; other documents disagree on this pair)” as the substance, how does the stoichiometry N read?
Answer: 2
